Earlier results on one substance are cited in article PMC5150220.

In general, Kd refers to the equilibrium constant for the complex coming apart.

This data set concerns the target sigma32 peptide 132-144 (Escherichia coli) (UniProt P0AGB3).

DnaK, sequence (P0A6Y8 2-638): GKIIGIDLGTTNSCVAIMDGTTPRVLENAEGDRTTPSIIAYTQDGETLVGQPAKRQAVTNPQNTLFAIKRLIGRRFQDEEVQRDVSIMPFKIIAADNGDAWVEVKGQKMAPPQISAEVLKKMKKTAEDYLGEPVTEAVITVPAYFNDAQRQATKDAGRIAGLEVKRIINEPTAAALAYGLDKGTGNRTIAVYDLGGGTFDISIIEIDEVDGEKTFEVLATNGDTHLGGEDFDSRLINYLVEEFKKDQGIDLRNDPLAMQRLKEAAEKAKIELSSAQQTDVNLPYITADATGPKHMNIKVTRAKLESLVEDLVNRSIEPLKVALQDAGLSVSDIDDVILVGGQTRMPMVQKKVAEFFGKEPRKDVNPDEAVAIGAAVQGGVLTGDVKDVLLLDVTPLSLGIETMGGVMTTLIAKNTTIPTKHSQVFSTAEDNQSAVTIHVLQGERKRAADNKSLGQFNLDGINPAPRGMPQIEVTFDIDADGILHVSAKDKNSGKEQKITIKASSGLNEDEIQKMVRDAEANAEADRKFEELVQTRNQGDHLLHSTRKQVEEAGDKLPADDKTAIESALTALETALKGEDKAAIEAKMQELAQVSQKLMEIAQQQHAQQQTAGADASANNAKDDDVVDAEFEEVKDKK

Consider DnaK (from UniProt P0A6Y8), for which the Kd is 0.078 µM.
